Measured values from US20210340276A1 (Astellas, published 2021).
Substitutions are numbered along the chain they refer to.

B1: P10-1 Fab (Fab, V domains shown)
VH: QVQLVQSGAEVKKPGASVKVSCKASGYTFTNYGLSWVRQAPGQGLEWMGENHPGSGIIYHNEKFRGRVTLTADRSTSTAYMELSSLRSEDTAVYYCARSSGTRGFAYWGQGTLVTVSS
VL: DVVMTQTPLSLSVTPGQPASISCRSSQSIVHSNGNTYLEWYLQKPGQSPQLLIYRVSNRFSGVPDRFSGSGSGTDFTLKISRVEAEDVGVYYCFQGSHGPWTFGQGTKLEIKR
notes: expressed in Expi293F cells, purified with KappaSelect; also called anti-human MUC1 antibody Fab fragment P10-1
B2: P10-2 Fab (Fab, V domains shown)
VH: B1 VH with A106D
VL: B1 VL
modifications: heavy chain N-terminal glutamine modified into pyroglutamic acid in a great majority of purified antibodies (Example 2)
notes: expressed in Expi293F cells, purified with KappaSelect; also called anti-human MUC1 antibody Fab fragment P10-2

Biological target: T1, human cancer-specific MUC1 (on breast cancer cell line T-47D cells) (human, UniProt P15941 24-1255, cancer-specific incomplete O-glycosylation (T, Tn, 2,3ST) of the tandem repeat, as described in the background)
T1 construct: whole, on cells; cells fixed in formalin; also called Mucin 1
Experiment: Cell ELISA on formalin-fixed T-47D cells, HRP anti-human Igκ detection, luminescence; reference 1B2 Fab
Description: Specifically, breast cancer cell line T-47D cells (purchasable from ATCC; HTB-133) expressing human cancer-specific MUC1 were inoculated at 0.75×10⁴ cells per well to a 96-well ELISA plate coated with collagen I, and cultured overnight. […] Then, a horseradish peroxidase (HRP)-labeled goat anti-human Igκ antibody (Southern Biotechnology Associates, Inc.) was reacted as a secondary antibody. ECL Prime Western Blotting Detection Reagent (GE Healthcare Japan Corp.) was added thereto for luminescence, and the degree of the luminescence was examined.

Binder	fold binding activity compared to 1B2 Fab [times]
B1	≥ 10
B2	≥ 10
